Data from paper PMC11224109, “Synthesis and preclinical evaluation of novel ^18F-vancomycin-based tracers for the detection of bacterial infections using positron emission tomography” (European Journal of Nuclear Medicine and Molecular Imaging, 2024).

What was measured:
[1] = Summary of tracer stability in vitro and in vivo; conditions: summary table, in vitro and in vivo
Experimental: Stability of the tracers was determined in PBS and human plasma. In a typical experiment, 1 MBq of radioactivity (10–20 µL) was added to 250 µL of PBS or human plasma. Samples were heated to 37 °C on a shaker and sampled at fixed intervals. For samples containing human plasma, protein was precipitated using two volumes of cold MeCN. Precipitated samples were briefly centrifuged to pellet the insoluble fraction and supernatant was used for stability assessment. Supernatant (1 µL) was loaded on a TLC plate and imaged using BAS-IP MS 2025 E plates (Fujifilm, Tokyo, Japan) on an Amersham Typhoon Biomolecular Imager (GE Healthcare Bio-Sciences Corp, Chicago, United States) equipped with a phosphor imaging stage. [^18F]BODIPY-FL-vancomycin has an Rf of 0.68 (petroleum ether/MeOH 3:1), [^18F]FB-vancomycin has an Rf of 0.66 (2 M NaOAc/MeOH 5:1). For [^18F]PQ-VE1-vancomycin, conditions described in [44] were used.

[2] = test system: S. aureus USA300 MRSA strain; assay: Competition with unlabeled vancomycin; type: binding, Staphylococcus aureus; conditions: S. aureus USA300, OD600 0.2, 125 kBq tracer per mL, 30 min incubation, gamma counter
Experimental: [^18F]FB-vancomycin was excluded due to its limited in vitro and in vivo stability. On the day of the experiment, a fresh culture was started in 10 mL of TSB and grown to an OD600 of 2.0. […] Bacteria were added to the dilutions to obtain a final OD600 of 0.2 and the vial was briefly vortexed to ensure proper mixing. Tracer was added (125 kBq per mL, 40.3 pg and 0.5 pg of [^18F]BODIPY-FL-vancomycin and [^18F]PQ-VE1-vancomycin, respectively) and the vial was vortexed again. After 30 min incubation, aliquots were collected in 2 mL Eppendorf tubes and washed twice with PBS by centrifugation. […] Measurements were corrected for background and decay. Results are reported as 10^3 counts per s (kBq).

[3] = Distribution coefficient LogD7.4, shake-flask n-octanol/PBS; type: physicochemical; conditions: shake-flask n-octanol/PBS pH 7.4, 500 µL each, 10 µL tracer in saline, vortexed 30 s, shaken 15 min, gamma counter, mean ± SD
Experimental: The tracer distribution coefficient in n-octanol/PBS pH 7.4 (LogD7.4) was determined using a shake-flask methodology. To an Eppendorf tube containing 500 µL n-octanol and 500 µL PBS, 10 µL tracer solution in saline was added. The vial was vortexed for 30 s and placed on an Eppendorf shaker for 15 min. After incubation, layers were separated by centrifugation (1 min at 10.000 rpm) and a fraction of the n-octanol layer was pipetted off. To minimize contamination of the bottom layer with the n-octanol layer, the bottom PBS layer was collected by puncturing the bottom of the Eppendorf tube with a 22G needle and aspirating a fraction of the PBS layer. Collected fractions were weighted to correct for collected volume and subsequently measured on a calibrated gamma counter and corrected for decay. LogD7.4 was calculated as [drawing 1] .

[4] = Biodistribution in vivo and PET in healthy mice; conditions: for tissue uptake at 0.5 h / tissue uptake at 1 h / tissue uptake at 1.5 h: male, C57BL/6, mouse, in vivo, iv, 2 MBq, total radioactivity, Biodistribution, healthy male C57BL/6 mice, penile vein injection, gamma counter, mean of n = 3; for tissue uptake at 0.5 h: 30 min; for tissue uptake at 1 h: 60 min; for tissue uptake at 1.5 h: 90 min
Experimental: All murine experiments were approved by the Animal Care and Use Committee of the University of Groningen under license protocol number 2114768-01-001. In vivo biodistribution was performed in male C57BL/6 mice (age 8 weeks, 25 g). Per tracer, the animals were divided in three groups based on the tracer distribution times (30 min, 60 min, and 90 min). […] Each experimental arm (i.e. time point) consisted of three animals. […] Tracer was administered at t = 0 via penile vein injection (2.0 ± 0.9 MBq in 100 µL 0.9% saline solution, Supplemental Table 2). After tracer administration, the animals were transferred to a Siemens Focus 220 microPET small animal scanner (Siemens, Munich, Germany) and scanned for the designated time, followed by a transmission scan of 10 min for attenuation correction. PET data were normalized and corrected for decay, after which the PET data were reconstructed using OSEM2D-Z1-SC-256. The PET data frames used for reconstruction were: 6 × 10 s, 4 × 30 s, 2 × 60 s, 120 s, 180 s, 4 × 300 s, 3 × 600 s, 1200 s or until the designated scan time was reached, taking into account a 10-min transmission scan following the emission scan. Next, animals were terminated, and organs harvested to assay biodistribution in a calibrated gamma counter (Wizard2, Perkin Elmer, Waltham, United States).

CN[C@H](CC(C)C)C(=O)N[C@H]1C(=O)N[C@@H](CC(N)=O)C(=O)N[C@H]2C(=O)N[C@H]3C(=O)N[C@H](C(=O)N[C@H](C(=O)O)c4cc(O)cc(O)c4-c4cc3ccc4O)[C@H](O)c3ccc(c(Cl)c3)Oc3cc2cc(c3O[C@@H]2O[C@H](CO)[C@@H](O)[C@H](O)[C@H]2O[C@H]2C[C@](C)(NC(=O)c3ccc4c5c(c6ccccc6c4c3)OCC(OCCF)O5)[C@H](O)[C@H](C)O2)Oc2ccc(cc2Cl)[C@H]1O (stereo partly drawn) [[^18F]PQ-VE1-vancomycin]
Stability [1]: Stable in vitro and in vivo up to 2 h.
Tracer binding to S. aureus at a concentration of 1024 µg/mL vancomycin [2]: reduced to baseline
Tracer binding to S. aureus at vancomycin concentrations below 2 µg/mL [2]: not significantly inhibited
Tracer binding to S. aureus at vancomycin concentrations of up to 64 µg/mL [2]: signal over background was still detected
LogD7.4 [3]: -0.51 ± 0.07 (n = 9)
Crossing of the blood-brain barrier (BBB) ([4]; healthy mice, intravenous injection): no substantial signal was observed in the brain
Accumulation ([4]; healthy mice, summary table): Accumulation in spleen, liver and lungs
Clearance ([4]; healthy mice, summary table): Slow renal clearance
Muscle uptake ([4]; healthy mice, summary table): Low muscle uptake
tissue uptake at 0.5 h ([4]; Bladder): 3.12 %ID/g
tissue uptake at 1 h ([4]; Bladder): 3.83 %ID/g
tissue uptake at 1.5 h ([4]; Bladder): 3.73 %ID/g
tissue uptake at 0.5 h ([4]; Bone): 1.14 %ID/g
tissue uptake at 1 h ([4]; Bone): 1.34 %ID/g
tissue uptake at 1.5 h ([4]; Bone): 0.75 %ID/g
tissue uptake at 0.5 h ([4]; Brain): 0.14 %ID/g
tissue uptake at 1 h ([4]; Brain): 0.14 %ID/g
tissue uptake at 1.5 h ([4]; Brain): 0.17 %ID/g
tissue uptake at 0.5 h ([4]; Fat): 0.81 %ID/g
tissue uptake at 1 h ([4]; Fat): 0.79 %ID/g
tissue uptake at 1.5 h ([4]; Fat): 0.55 %ID/g
tissue uptake at 0.5 h ([4]; Heart): 3.54 %ID/g
tissue uptake at 1 h ([4]; Heart): 2.6 %ID/g
tissue uptake at 1.5 h ([4]; Heart): 1.82 %ID/g
tissue uptake at 0.5 h ([4]; Kidneys): 3.37 %ID/g
tissue uptake at 1 h ([4]; Kidneys): 2.73 %ID/g
tissue uptake at 1.5 h ([4]; Kidneys): 2.04 %ID/g
tissue uptake at 0.5 h ([4]; Large intestine): 2.28 %ID/g
tissue uptake at 1 h ([4]; Large intestine): 1.81 %ID/g
tissue uptake at 1.5 h ([4]; Large intestine): 1.98 %ID/g
tissue uptake at 0.5 h ([4]; Liver): 10.5 %ID/g
tissue uptake at 1 h ([4]; Liver): 9.33 %ID/g
tissue uptake at 1.5 h ([4]; Liver): 7.72 %ID/g
tissue uptake at 0.5 h ([4]; Lungs): 4.71 %ID/g
tissue uptake at 1 h ([4]; Lungs): 3.8 %ID/g
tissue uptake at 1.5 h ([4]; Lungs): 3.21 %ID/g
tissue uptake at 0.5 h ([4]; Muscle): 0.86 %ID/g
tissue uptake at 1 h ([4]; Muscle): 0.85 %ID/g
tissue uptake at 1.5 h ([4]; Muscle): 0.6 %ID/g
tissue uptake at 0.5 h ([4]; Plasma): 6.12 %ID/g
tissue uptake at 1 h ([4]; Plasma): 4.47 %ID/g
tissue uptake at 1.5 h ([4]; Plasma): 2.88 %ID/g
tissue uptake at 0.5 h ([4]; Small intestine): 2.99 %ID/g
tissue uptake at 1 h ([4]; Small intestine): 2.19 %ID/g
tissue uptake at 1.5 h ([4]; Small intestine): 1.79 %ID/g
tissue uptake at 0.5 h ([4]; Spleen): 7.89 %ID/g
tissue uptake at 1 h ([4]; Spleen): 11.5 %ID/g
tissue uptake at 1.5 h ([4]; Spleen): 8.39 %ID/g
tissue uptake at 0.5 h ([4]; Stomach): 2.28 %ID/g
tissue uptake at 1 h ([4]; Stomach): 2.45 %ID/g
tissue uptake at 1.5 h ([4]; Stomach): 1.92 %ID/g
tissue uptake at 0.5 h ([4]; Whole blood): 3.71 %ID/g
tissue uptake at 1 h ([4]; Whole blood): 2.56 %ID/g
tissue uptake at 1.5 h ([4]; Whole blood): 1.86 %ID/g
